Experimental data taken from PMC6156078, “Thalidomide promotes degradation of SALL4, a transcription factor implicated in Duane Radial Ray syndrome” (eLife, 2018).
One block for each molecule: values may come before it.

Columns and labels:
[1] = target: DDB1∆B-CRBN_(Spy-BodipyFL), Q16531;Q96SW2; test: TR-FRET; conditions: terbium-streptavidin 4 nM, read off a plot
[2] = system: SALL4; test: Western blot of SALL4: thalidomide with proteasome/NEDD8/UBA1 inhibitor co-treatment; conditions: Kelly, HEK293T, SK-N-DZ cells; thalidomide + 5 µM bortezomib, 5 µM MLN4924 or 0.5 µM MLN7243, 24 h
[3] = value at the highest DDB1∆B-CRBN concentration (about 12.8 µM), SALL4 ZnF1-2 100 nM, thalidomide 50 µM, parent: est. 45

response ([1]; value at the highest lenalidomide dose (log[Len] about -4.4 M), DDB1∆B-CRBN 200 nM, SALL4 ZnF2 100 nM, parent: est. 0.47): 0.075 520/490 | response ([1]; value at the highest pomalidomide dose (log[Pom] about -4.4 M), DDB1∆B-CRBN 200 nM, SALL4 ZnF2 100 nM, parent: est. 0.97): 0.09 520/490
Molecule: _(Strep-BirA)hsSALL4_(402-436) (ZnF2) (from UniProt Q9UJQ4) G416A

Molecule: NS(=O)(=O)OC[C@H]1C[C@@H](Nc2ccnc3cc(-c4cccc(SC(F)(F)F)c4)nn23)[C@H](O)[C@@H]1O [MLN7243]
effect of co-treatment on IMiD-induced SALL4 degradation [2]: abrogated

response [1, 3]: 45 520/490 | response ([1]; value at the highest lenalidomide dose (log[Len] about -4.4 M), DDB1∆B-CRBN 200 nM, SALL4 ZnF1-2 100 nM, parent: est. 2.6): 1.6 520/490 | response ([1]; value at the highest pomalidomide dose (log[Pom] about -4.4 M), DDB1∆B-CRBN 200 nM, SALL4 ZnF1-2 100 nM, parent: est. 4.1): 2.6 520/490 | response ([1]; value at the highest thalidomide dose (log[Thal] about -4.4 M), DDB1∆B-CRBN 200 nM, SALL4 ZnF1-2 100 nM, parent: est. 3.7): 2.2 520/490
Molecule: _(Strep-BirA)hsSALL4_(378-438) (ZnF1-2) (from UniProt Q9UJQ4) S388N

response [1, 3]: 6 520/490
Molecule: _(Strep-BirA)hsSALL4_(378-438) (ZnF1-2) (from UniProt Q9UJQ4) G416N

response ([1]; value at the highest thalidomide dose (log(Thal) about -4.5 M), DDB1∆B-CRBN 1 µM, SALL4 ZnF4 100 nM, parent: est. 0.27): 0.19 520/490
Molecule: _(Strep-BirA)hsSALL4_(590-618) (ZnF4) (from UniProt Q9UJQ4) Q595H
